The target in experiment [1] is Factor VIII (human recombinant FVIII) (human) (UniProt P00451). Description: cell-based or functional assay.
In experiment [2] the target is polyclonal antibodies of the patient from whom BO2C11 was derived. Description: cell-based or functional assay.
The target of experiment [3] is BO2C11 surface antibody on the BO2C11 lymphoblastoid B-cell line. Description: flow cytometry on the BO2C11 lymphoblastoid cell line, 1 or 10 µg/ml antibody, anti-mouse IgG-FITC. On the technique in general: In flow cytometry, cells or beads pass a laser one at a time.
In experiment [4] the target is human monoclonal antibody BO2C11, FVIII-specific IgG4kappa inhibitory antibody against the C2 domain. Description: cell-based or functional assay.
For experiment [5] the target is unchanged. Description: surface plasmon resonance. (In general: In SPR one partner is held on a chip, and binding of the other changes the refractive index at the surface.)
Experiment [6] has as its target polyclonal antibodies of 6 unrelated patients with haemophilia A and inhibitor towards the C2 domain. Description: immunoprecipitation of radiolabelled C2 domain with patient polyclonal antibodies and protein A Sepharose; Ab 14C12 added at increasing concentration.

A value given as a limit tells only on which side of the number the result lay.

One may read the koff as the first-order rate constant of dissociation.

Sequence of Factor VIII (human recombinant FVIII) (human) (P00451 20-2351): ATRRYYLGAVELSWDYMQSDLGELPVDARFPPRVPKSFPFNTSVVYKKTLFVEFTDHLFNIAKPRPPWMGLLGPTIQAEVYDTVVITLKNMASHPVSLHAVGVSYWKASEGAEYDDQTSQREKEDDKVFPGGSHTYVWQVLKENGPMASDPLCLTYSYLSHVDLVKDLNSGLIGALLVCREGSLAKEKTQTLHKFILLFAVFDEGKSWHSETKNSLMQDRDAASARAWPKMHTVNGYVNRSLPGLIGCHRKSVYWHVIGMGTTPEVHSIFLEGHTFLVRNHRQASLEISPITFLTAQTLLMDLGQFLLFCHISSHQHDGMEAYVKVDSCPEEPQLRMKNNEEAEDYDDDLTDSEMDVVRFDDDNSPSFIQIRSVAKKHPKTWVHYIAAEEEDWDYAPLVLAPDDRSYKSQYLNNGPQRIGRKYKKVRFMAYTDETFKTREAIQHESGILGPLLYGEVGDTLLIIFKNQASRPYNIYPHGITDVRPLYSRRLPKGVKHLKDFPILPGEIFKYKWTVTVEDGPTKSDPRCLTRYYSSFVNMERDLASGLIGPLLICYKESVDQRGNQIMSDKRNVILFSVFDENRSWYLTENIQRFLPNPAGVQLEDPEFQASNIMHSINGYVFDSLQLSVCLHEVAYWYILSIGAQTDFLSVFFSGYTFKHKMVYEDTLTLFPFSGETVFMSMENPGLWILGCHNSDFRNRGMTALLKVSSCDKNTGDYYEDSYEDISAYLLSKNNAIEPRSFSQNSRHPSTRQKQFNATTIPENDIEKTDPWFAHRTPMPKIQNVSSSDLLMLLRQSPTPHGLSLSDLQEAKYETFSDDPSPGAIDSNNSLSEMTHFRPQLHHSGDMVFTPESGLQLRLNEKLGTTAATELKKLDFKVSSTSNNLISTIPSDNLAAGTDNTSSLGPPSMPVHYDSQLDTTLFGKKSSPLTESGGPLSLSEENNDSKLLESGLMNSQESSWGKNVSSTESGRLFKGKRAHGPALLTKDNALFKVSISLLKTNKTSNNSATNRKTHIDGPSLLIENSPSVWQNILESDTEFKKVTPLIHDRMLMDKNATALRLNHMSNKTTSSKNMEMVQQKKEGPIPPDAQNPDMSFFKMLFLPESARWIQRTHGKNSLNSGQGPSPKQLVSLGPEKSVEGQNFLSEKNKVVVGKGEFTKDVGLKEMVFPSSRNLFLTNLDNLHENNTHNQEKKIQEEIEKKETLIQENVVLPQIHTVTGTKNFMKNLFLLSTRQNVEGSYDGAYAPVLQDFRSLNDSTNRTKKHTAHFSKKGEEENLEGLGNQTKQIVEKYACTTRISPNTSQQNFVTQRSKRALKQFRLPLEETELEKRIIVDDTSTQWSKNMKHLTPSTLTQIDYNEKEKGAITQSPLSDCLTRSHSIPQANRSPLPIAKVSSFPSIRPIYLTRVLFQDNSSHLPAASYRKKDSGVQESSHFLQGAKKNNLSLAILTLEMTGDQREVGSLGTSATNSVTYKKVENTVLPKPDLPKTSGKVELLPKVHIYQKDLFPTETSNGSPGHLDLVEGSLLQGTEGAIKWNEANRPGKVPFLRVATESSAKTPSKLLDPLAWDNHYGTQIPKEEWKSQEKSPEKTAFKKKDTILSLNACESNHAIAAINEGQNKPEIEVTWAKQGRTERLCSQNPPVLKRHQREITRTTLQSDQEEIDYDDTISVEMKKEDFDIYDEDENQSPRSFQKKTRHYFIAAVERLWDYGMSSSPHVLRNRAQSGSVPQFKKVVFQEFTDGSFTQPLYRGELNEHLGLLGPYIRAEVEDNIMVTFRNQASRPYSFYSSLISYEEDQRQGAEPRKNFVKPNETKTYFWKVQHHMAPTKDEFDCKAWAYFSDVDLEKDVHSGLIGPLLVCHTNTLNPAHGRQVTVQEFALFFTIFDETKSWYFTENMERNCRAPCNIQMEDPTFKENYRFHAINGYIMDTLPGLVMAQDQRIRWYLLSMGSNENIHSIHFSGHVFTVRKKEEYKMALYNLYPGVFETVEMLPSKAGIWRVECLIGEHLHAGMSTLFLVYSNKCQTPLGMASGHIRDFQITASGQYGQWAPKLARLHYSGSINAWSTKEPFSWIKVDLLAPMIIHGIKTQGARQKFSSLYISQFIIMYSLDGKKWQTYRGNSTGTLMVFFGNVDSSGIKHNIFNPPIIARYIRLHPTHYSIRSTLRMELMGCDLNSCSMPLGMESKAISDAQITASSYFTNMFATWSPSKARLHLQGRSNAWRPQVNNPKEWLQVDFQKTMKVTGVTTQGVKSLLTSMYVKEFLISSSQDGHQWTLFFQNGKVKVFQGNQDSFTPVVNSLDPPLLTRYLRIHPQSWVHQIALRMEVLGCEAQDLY

B1: human monoclonal antibody BO2C11, FVIII-specific IgG4kappa inhibitory antibody against the C2 domain (antibody, from another filing, V domains shown)
VH: QVQLVQSGAEVKKPGASVKVSCKVSGYTLTELPVHWVRQAPGKGLEWVGSFDPESGESIYAREFQGSVTMTADTSTDIAYMELSSLRSDDTAVYYCAVPDPDAFDIWGQGTMVTVSS
VL: EIALTQSPGTLSLSPGERATLSCRASQSFSSSYLAWYQQKPGQAPRLLIYGASTRATGIPDRFSGSGSGTDFTLTISRLEPEDFAVYYCQKYGTSAITFGQGTRLEIK
In the case of B1, in experiment [1], the inhibition of FVIII procoagulant activity in FVIII-/- mice (% inhibition at 0.5 µg BO2C11) was found to be 98 and the inhibition of FVIII-dependent substrate conversion (Faktor VIII chromogen test) (% inhibition at 0.1 µg/ml BO2C11) came out at 100.

B2: anti-idiotypic antibody Ab 14C12 obtained from cell line 14C12 (LMBP 5878CB) (antibody, V domains shown)
VH: EVQLQQSGPELVKPGASVKLSCKASGYTFTSSVMHWLKQKSGQGLEWIGYINPYNDGTKYNEKFTAKATLTSDKSSSTVYMELSGLTSEDFAVYYCARSGGLLRGYWYFDVWGAGTTVTVSSAKTTAPSVYPLVPGC
VL: DLVLTQSPATLSVTPGDSVSLSCRASQDITNTLHWYHQKSHESPRLLIKYVSQSISGIPSRFSGSGSGTVFTLSINSVETEDFGVYFCQQSTSWPYTFGGGTKLEIKRADAAPTVSIFPPSSE
In experiment [2], B2 registered a neutralisation of polyclonal anti-FVIII antibodies (chromogenic assay) (% neutralisation) of under 60.

B3: anti-idiotypic antibody Ab 14C12 obtained from cell line 14C12 (LMBP 5878CB) (antibody, V domains shown)
VH: EVQLQQSGPELVKPGASVKLSCKASGYTFTSSVMHWLKQKSGQGLEWIGYINPYNDGTKYNEKFTAKATLTSDKSSSTVYMELSGLTSEDFAVYYCARSGGLLRGYWYFDVWGAGTTVTVSS
VL: DLVLTQSPATLSVTPGDSVSLSCRASQDITNTLHWYHQKSHESPRLLIKYVSQSISGIPSRFSGSGSGTVFTLSINSVETEDFGVYFCQQSTSWPYTFGGGTKLEIKR
With B3, the percent of cells positive in experiment [3] was determined as 68%. Moreover, the in vivo neutralisation of BO2C11-mediated FVIII inhibition in FVIII-/- mice (% neutralisation at equimolar ratio) in experiment [4] came to 50. In addition, the neutralisation of BO2C11 inhibitory capacity (chromogenic assay) in experiment [4] (scale: % neutralisation at a '11' molar ratio) was determined as 50. Besides, the in vivo neutralisation of BO2C11-mediated FVIII inhibition in FVIII-/- mice in experiment [4] (scale: molar excess of Ab 14C12 over BO2C11 for full neutralisation) is 3.5. Also, the koff in experiment [5] was found to be 1e-05 s⁻¹. In addition, the percent neutralisation in experiment [6] was 50%.

The values above are taken from patent publication US20060239998A1.
